From patent US20130123460A1 (SANWA KAGAKU KENKYUSHO, published 2013)
Where no end group is shown, it is not given here.

Target: endogenous VIP receptor of SUP-T1 cells (human)
Test: cell-based or functional assay

cAMP Productivity in SUP-T1 Cells, Activity Intensity (%) relative to native VIP: 100%
Binder: HSDAVFTDNYTRLRKQMAVKKYLNSILN-NH2 [VIP(1-28)-NH2]
